Tests used:
Experiment in all cases: pull-down
ITK PHTH L51D = molecular target: ITK PHTH L51D
[1] = molecular target: His6-GB1 tagged ITK PHTH (C96E/T110I) domain
ITK PHTH E56A = molecular target: ITK PHTH E56A

decrease in binding compared to wild type ITK PHTH (ITK PHTH L51D): 50%
disruption of the interaction by 5 μM IP(1,3,4,5)P4 [1]: > 50%
decrease in binding compared to wild type ITK PHTH (ITK PHTH E56A): 50%
Substance: His6 tagged mouse ITK kinase domain (residues 356-619) (domain or fragment)

Source: publication PMC5956896
